Measured values taken from article doi:10.1101/2023.12.13.571504 (bioRxiv, 2023).

B1: msfGFP-GRP8^WT (Arabidopsis thaliana Glycine-Rich RNA-Binding Protein 8 fused to monomeric superfolder GFP) (natural protein, UniProt Q03251 1-169, looked up)
chain: MSEVEYRCFVGGLAWATNDEDLQRTFSQFGDVIDSKIINDRESGRSRGFGFVTFKDEKAMRDAIEEMNGKELDGRVITVNEAQSRGSGGGGGGRGGSGGGYRSGGGGGYSGGGGGGYSGGGGGGYERRSGGYGSGGGGGGRGYGGGGRREGGGYGGGDGGSYGGGGGGW
B2: msfGFP-GRP8^R7A (natural protein, Arabidopsis thaliana, UniProt Q03251 1-169, looked up)
chain: MSEVEYACFVGGLAWATNDEDLQRTFSQFGDVIDSKIINDRESGRSRGFGFVTFKDEKAMRDAIEEMNGKELDGRVITVNEAQSRGSGGGGGGRGGSGGGYRSGGGGGYSGGGGGGYSGGGGGGYERRSGGYGSGGGGGGRGYGGGGRREGGGYGGGDGGSYGGGGGGW

Biological target: the molecule itself
Assay: cross-linking

Protein	stoichiometry N	binding result
B1	2	
B2		binds
